Test results as given in publication PMC8729784.

Target: T1, α-catenin monomer (recombinant full-length mouse α-catenin) (mouse), P26231
T1 chain: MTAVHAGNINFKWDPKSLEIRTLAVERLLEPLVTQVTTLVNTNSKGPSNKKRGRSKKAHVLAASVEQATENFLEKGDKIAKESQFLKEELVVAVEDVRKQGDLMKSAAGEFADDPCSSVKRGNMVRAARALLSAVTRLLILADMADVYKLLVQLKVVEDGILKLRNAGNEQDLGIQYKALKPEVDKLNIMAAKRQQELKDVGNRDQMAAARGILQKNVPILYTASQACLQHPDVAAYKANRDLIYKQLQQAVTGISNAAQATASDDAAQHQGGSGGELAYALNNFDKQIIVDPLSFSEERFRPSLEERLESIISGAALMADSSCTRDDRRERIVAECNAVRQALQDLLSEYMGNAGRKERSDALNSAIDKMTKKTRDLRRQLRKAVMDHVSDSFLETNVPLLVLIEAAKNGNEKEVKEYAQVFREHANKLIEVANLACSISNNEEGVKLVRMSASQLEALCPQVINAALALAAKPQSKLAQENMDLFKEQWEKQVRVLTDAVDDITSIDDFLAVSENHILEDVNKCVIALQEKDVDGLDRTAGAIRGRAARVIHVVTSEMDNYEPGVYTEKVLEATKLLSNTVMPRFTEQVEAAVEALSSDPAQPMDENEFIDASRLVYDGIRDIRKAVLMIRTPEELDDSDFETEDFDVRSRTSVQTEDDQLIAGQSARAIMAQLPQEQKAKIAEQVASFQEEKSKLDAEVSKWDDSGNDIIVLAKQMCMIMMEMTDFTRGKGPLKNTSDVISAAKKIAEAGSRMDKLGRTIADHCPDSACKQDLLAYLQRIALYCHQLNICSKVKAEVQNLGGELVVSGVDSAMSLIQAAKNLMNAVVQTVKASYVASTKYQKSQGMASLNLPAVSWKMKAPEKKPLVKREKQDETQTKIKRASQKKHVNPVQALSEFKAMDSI
Experiment: SEC; Superdex 200 gel filtration at 4°C in 20 mM Tris-HCl pH 8.0, 150 mM NaCl, 2.5 mM DTT, after His-tag affinity chromatography; dimer and monomers
Conditions: remark: other sources report otherwise

- stoichiometry N: 2
B1: α-catenin monomer (recombinant full-length mouse α-catenin), P26231 1-906 (natural protein)
chain: T1 chain
